B1: BMP4: bone morphogenic protein; BMP4-based protocol uses 50 ng/ml BMP4 (protein, UniProt P12644 293-408, looked up)
Bone morphogenetic protein 4: SPKHHSQRARKKNKNCRRHSLYVDFSDVGWNDWIVAPPGYQAFYCHGDCPFPLADHLNSTNHAIVQTLVNSVNSSIPKACCVPTELSAISMLYLDEYDKVVLKNYQEMVVEGCGCR

Tests used:
Assay type in all cases: cell-based, human
[1] = tested on: BR7 O-neg hiPSC line; experiment: CHIR dose: hematopoietic/erythroid differentiation of agitated hPSC-MC aggregates; conditions: optimal dose of CHIR-99021, day 4
[2] = tested on: D9 O-neg hiPSC line; experiment: as above; conditions: optimal dose of CHIR-99021, day 4
[3] = tested on: IMR90 hiPSC line; experiment: as above; conditions: optimal dose of CHIR-99021, day 4
[4] = tested on: hES-3-MC aggregates; experiment: BMP4-based differentiation of hES-3-MC aggregates from static or agitated hPSC expansion; conditions: BMP4-based protocol; for erythroid cells: starting from 2×10^5 hematopoietic precursors, repeated attempts; for T-bra: Day 2; for KDR: Day 4; for total hematopoietic precursors per well: after 2 weeks of differentiation; for total erythroblast per well: day 28
Description: To test the hypothesis that agitation condition may be a major factor for variable differentiation, hES-3 that was initially expanded under either static (static human pluripotent stem cell (hPSC) expansion) or agitation (agitated human pluripotent stem cell expansion) condition for 7 days were differentiated under static condition using a BMP4-based differentiation protocol. […] (FIG. 10). […] Like-wise, subsequent generation of erythroblast was also severely impaired in cultures derived from agitated as compared to static hPSC expansion group (total erythroblast per well: 4.11±2.4×10^4 vs 26.2±4.7×10^6, respectively, p=0.005; total CD235a population: 0.51±0.1% vs 51.8±2.0%, p<0.0001) (FIG. 1E).
Mesoderm induction of hPSC-MC aggregates using BMP4 based protocol has previously been described. One million HPSC-MC aggregates were cultured in Stemline II hematopoietic stem cell expansion medium (Sigma-Aldrich, USA) containing 50 ng/ml of BMP4 and 50 ng/ml of VEGF165 under static condition. 48 hours later, half the medium was removed and replaced with Stemline II medium containing 50 ng/ml of BMP4, 50 ng/ml of VEGF165 and 20 ng/ml of bFGF (all cytokines from STEMCELL Technologies). HPSC-MC aggregates were cultured for a further 48 hours before being used for hematopoietic precursors differentiation.
One million HPSC-MC aggregates were cultured in Stemline II hematopoietic stem cell expansion medium (Sigma-Aldrich, USA) containing 50 ng/ml of BMP4 and 50 ng/ml of VEGF165. 48 hours later, half the medium was removed and replaced with Stemline II medium containing 50 ng/ml of BMP4, 50 ng/ml of VEGF165 and 20 ng/ml of bFGF (all cytokines from STEMCELL. Technologies). HPSC-MC aggregates were cultured for a further 48 hours before being used for hematopoietic precursor expansion.
HPSC-MC aggregates were dissociated into single cells by treatment with TrypLE. Express (ThermoFisher Scientific) for 5 minutes at 37° C., passed through 40 μm cell strainer (Greiner Bio-one), centrifuged at 1300 rpm for 3 minutes to pellet cells, and rinsed once with phosphate buffered saline (PBS) before re-suspension in Stemline II medium. Two hundred thousand cells in 100 μl of Stemline II medium were transferred to a 6-well ultra-low attachment plate and cultured with Blast growth medium (BGM) for 2 weeks in static conditions as detailed herein.
Hematopoietic precursors were mixed with equal volume of Stemline II medium containing 50 ng/ml of SCF (STEMCELL. Technologies) and 3 U/ml EPO (Peprotech, USA), for an additional 7 days. Subsequently, cells were diluted 10-fold with PBS and pelleted by centrifugation at 3000 rpm for 10 minutes. Erythroblast cells were seeded at a concentration of 2.5×10^5 cells/ml in 3 ml of Stemline II media containing 1× Serum Replacement 3 (Sigma-Aldrich), 0.3% v/v Ex-CYTE growth enhancement media supplement (Merck, USA), 100 ng/ml SCF, 3 U/ml EPO, 1 μM hydrocortisone (Sigma-Aldrich), 200 μg/ml holo-transferrin (MP Biomedicals) and 1× penicillin-streptomycin (ThermoFisher Scientific) in 6-well ultra-low attachment plates under static condition. Cells were re-suspended in fresh media every 4 days and reseeded at 2.5×10^5cells/m=l when cell concentrations exceeded 2×10^6cells/ml. Cumulative fold-expansion was calculated by multiplying fold-expansion achieved between passaging of cells over the course of experiment(s).
For flow cytometric analysis of mesoderm and hematopoietic surface markers, cells were incubated for 15 minutes at room temperature with 1:50 diluted direct-conjugated antibodies. The following human antibodies were used: T-brachyury-FITC (R&D Systems), KDR-PE (Miltenyi Biotec), CD31-PE, CD43-FITC, CD 45-PE, CD71-APC, CD235a-FITC (all from BD Biosciences, USA). The following antibodies were used as isotype-controls: mouse IgG1-FITC and PE (Miltenyi Biotec, Germany), mouse IgG2bk-FITC and mouse IgG2ak-APC (BD Biosciences). […]

Molecule | Mesoderm induction % KDR+ PDGFRα− [1] | Mesoderm induction % KDR+ PDGFRα− [2] | Mesoderm induction % KDR+ PDGFRα− [3] | erythroid cells ([4]; MC-aggregates expanded in agitation condition) | erythroid cells ([4]; MC-aggregates expanded in static condition) | total CD235a population ([4]; agitated hPSC expansion) | T-bra ([4]; agitated hPSC expansion) | KDR ([4]; agitated hPSC expansion) | total hematopoietic precursors per well ([4]; agitated hPSC expansion) | total erythroblast per well ([4]; agitated hPSC expansion) | total CD235a population ([4]; static hPSC expansion) | T-bra ([4]; static hPSC expansion) | KDR ([4]; static hPSC expansion) | total hematopoietic precursors per well ([4]; static hPSC expansion) | total erythroblast per well ([4]; static hPSC expansion)
Cc1c[nH]c(-c2cnc(NCCNc3ccc(C#N)cn3)nc2-c2ccc(Cl)cc2Cl)n1 [CHIR-99021, 6-[[2-[[4-(2,4-Dichlorophenyl)-5-(5-methyl-1H-imidazol-2-yl)-2-pyrimidinyl]amino]ethyl]amino]-3-pyridinecarbonitrile] | 18.6% | 20.9% | 14.2% |  |  |  |  |  |  |  |  |  |  |  | 
B1 |  |  |  | 0.004-4.2×10^7 erythroid cells | 0.25-7.3×10^7 erythroid cells | 0.51±0.1% | 0.50±0.02% | 1.1±0.12% | 1.39×10^5±2.18×10^4 per well | 4.11±2.4×10^4 per well | 51.8±2.0% | 32.6±1.2% | 27.9±3.3% | 5.77×10^6±6.30×10^5 per well | 26.2±4.7×10^6 per well
